According to US20140271660A1 (Bayer, published 2014):

Target: T1, human antithrombin β complexed with heparin (ATβH) (human, UniProt P01008 33-464, lacks glycosylation at Asn135 (β glyco-isoform); complexed with heparin; biotinylated on surface lysines for panning and ELISA)
T1 construct: mature; heparin is not a protein; also called human ATβH; hATβH
Experiment: panning and screening of a human antibody library against human ATβ in complex with heparin
Description: A four-arm panning strategy was designed to discover Fabs specifically against ATβH from a human Fab library (Dyax Fab310). The library was first depleted with biotinylated heparin/Fondaparinux-bound ATα and biotinylated ATα and then was panned against heparin/Fondaparinux-bound ATβ and biotinylated ATβ on streptavidin beads, respectively. For each round of panning, the heparin-bound ATα (ATαH) was included in the binding buffer as a competitor. To keep hATβ in active conformation (heparin bound form), heparin was added to the wash buffer in all three rounds of panning. After panning, pooled clones were screened for hATβ and hATβH specific binding and counter-screened for hATα by ELISA. These clones were also examined for differential binding to rabbit ATβ over rabbit ATα. […] Positive hits (Fabs) were reformatted into IgG1, expressed in HEK293 cells and purified by protein-A column. These purified IgG1s were extensively tested in AT-depleted human plasma and hemA patient plasma for TGA assay (Thrombin Generation Assay) and dPT (diluted Prothrombin Time) assay to measure the clotting time.

T1 sequence (P01008 33-464, one chain of several): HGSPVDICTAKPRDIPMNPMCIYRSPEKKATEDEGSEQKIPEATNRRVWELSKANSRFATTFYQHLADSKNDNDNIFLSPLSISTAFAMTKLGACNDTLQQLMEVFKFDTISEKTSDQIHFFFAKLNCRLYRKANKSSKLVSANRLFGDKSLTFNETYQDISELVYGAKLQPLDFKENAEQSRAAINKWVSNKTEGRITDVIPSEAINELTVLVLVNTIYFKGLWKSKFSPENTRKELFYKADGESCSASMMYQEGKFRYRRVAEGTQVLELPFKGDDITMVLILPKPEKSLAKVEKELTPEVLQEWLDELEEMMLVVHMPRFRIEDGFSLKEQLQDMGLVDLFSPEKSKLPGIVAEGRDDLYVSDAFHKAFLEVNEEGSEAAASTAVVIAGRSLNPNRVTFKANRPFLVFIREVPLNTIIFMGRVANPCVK

binding result: binds
B1: TPP2009 hIgG1 (antibody, V domains shown)
VH: EVQLLESGGGLVQPGGSLRLSCAASGFTFSAYRMGWVRQAPGKGLEWVSRIYSSGGRTRYADSVKGRFTISRDNSKNTLYLQMNSLRAEDTAVYYCAREKASDLSGSFSEALDYWGQGTLVTVSS
VL: AQSVLTQDPAVSVALGQTVRITCQGDSLRSYYASWYQQKPGQAPVLVIYGKNNRPSGIPDRFSGSSSGNTASLTITGAQAEDEADYYCNSRDSSGNHLVFGGGTKLTVLG
